Laboratory results taken from IntAct's records for PubMed 30659753.

B1: Protein KHNYN (Homo sapiens), O15037 (parent)
chain: MPTWGARPASPDRFAVSAEAENKVREQQPHVERIFSVGVSVLPKDCPDNPHIWLQLEGPKENASRAKEYLKGLCSPELQDEIHYPPKLHCIFLGAQGFFLDCLAWSTSAHLVPRAPGSLMISGLTEAFVMAQSRVEELAERLSWDFTPGPSSGASQCTGVLRDFSALLQSPGDAHREALLQLPLAVQEELLSLVQEASSGQGPGALASWEGRSSALLGAQCQGVRAPPSDGRESLDTGSMGPGDCRGARGDTYAVEKEGGKQGGPREMDWGWKELPGEEAWEREVALRPQSVGGGARESAPLKGKALGKEEIALGGGGFCVHREPPGAHGSCHRAAQSRGASLLQRLHNGNASPPRVPSPPPAPEPPWHCGDRGDCGDRGDVGDRGDKQQGMARGRGPQWKRGARGGNLVTGTQRFKEALQDPFTLCLANVPGQPDLRHIVIDGSNVAMVHGLQHYFSSRGIAIAVQYFWDRGHRDITVFVPQWRFSKDAKVRESHFLQKLYSLSLLSLTPSRVMDGKRISSYDDRFMVKLAEETDGIIVSNDQFRDLAEESEKWMAIIRERLLPFTFVGNLFMVPDDPLGRNGPTLDEFLKKPARTQGSSKAQHPSRGFAEHGKQQQGREEEKGSGGIRKTRETERLRRQLLEVFWGQDHKVDFILQREPYCRDINQLSEALLSLNF

Variants of: B1
Conditions: with nedd8_human NEDD8, Q15843
Sequence of nedd8_human NEDD8, Q15843 (Q15843 whole entry): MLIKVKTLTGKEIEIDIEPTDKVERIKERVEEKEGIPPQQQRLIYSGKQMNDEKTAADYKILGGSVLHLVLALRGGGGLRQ

effect of a mutation on the interaction	Variant
decreasing interaction	W647A
decreasing interaction	W647P
decreasing interaction	R659E
decreasing interaction	H651F
decreasing interaction	R664E
decreasing interaction	K652D
